Source: doi:10.1101/2023.09.23.559074, “Direct ionic stress sensing and mitigation by the transcription factor NFAT5” (bioRxiv, 2023)

B1: GFP-PLD (superfolder GFP fused to the prion-like domain of NFAT5, a.a. 999-1454) (domain or fragment, human, UniProt O94916 999-1454, looked up)
chain: QIQNSVFQTMVQMQHSGDNQPQVNLFSSTKSMMSVQNSGTQQQGNGLFQQGNEMMSLQSGNFLQQSSHSQAQLFHPQNPIADAQNLSQETQGSLFHSPNPIVHSQTSTTSSEQMQPPMFHSQSTIAVLQGSSVPQDQQSTNIFLSQSPMNNLQTNTVAQEAFFAAPNSISPLQSTSNSEQQAAFQQQAPISHIQTPMLSQEQAQPPQQGLFQPQVALGSLPPNPMPQSQQGTMFQSQHSIVAMQSNSPSQEQQQQQQQQQQQQQQQQQSILFSNQNTMATMASPKQPPPNMIFNPNQNPMANQEQQNQSIFHQQSNMAPMNQEQQPMQFQSQSTVSSLQNPGPTQSESSQTPLFHSSPQIQLVQGSPSSQEQQVTLFLSPASMSALQTSINQQDMQQSPLYSPQNNMPGIQGATSSPQPQATLFHNTAGGTMNQLQNSPGSSQQTSGMFLFGIQNN
notes: NFAT5 (TonEBP), human, 1531 a.a. protein; prion-like domain (PLD), a.a; 999-1454; The methods for the bacterial construct say only 'NFAT5 PLD'; also called GFP-NFAT5 PLD; not shown: sfGFP, N-terminal, kept
B2: untagged NFAT5 PLD (PLD protein lacking the GFP tag) (domain or fragment, human, UniProt O94916 999-1454, looked up)
chain: QIQNSVFQTMVQMQHSGDNQPQVNLFSSTKSMMSVQNSGTQQQGNGLFQQGNEMMSLQSGNFLQQSSHSQAQLFHPQNPIADAQNLSQETQGSLFHSPNPIVHSQTSTTSSEQMQPPMFHSQSTIAVLQGSSVPQDQQSTNIFLSQSPMNNLQTNTVAQEAFFAAPNSISPLQSTSNSEQQAAFQQQAPISHIQTPMLSQEQAQPPQQGLFQPQVALGSLPPNPMPQSQQGTMFQSQHSIVAMQSNSPSQEQQQQQQQQQQQQQQQQQSILFSNQNTMATMASPKQPPPNMIFNPNQNPMANQEQQNQSIFHQQSNMAPMNQEQQPMQFQSQSTVSSLQNPGPTQSESSQTPLFHSSPQIQLVQGSPSSQEQQVTLFLSPASMSALQTSINQQDMQQSPLYSPQNNMPGIQGATSSPQPQATLFHNTAGGTMNQLQNSPGSSQQTSGMFLFGIQNN
notes: NFAT5 (TonEBP), human, 1531 a.a. protein; prion-like domain (PLD), a.a; 999-1454; source: E. coli BL21 (DE3) pLysS, purified from inclusion bodies (8 M urea extraction, Superdex 200)
B3: GFP-CTD (superfolder GFP fused to the C-terminal domain of NFAT5, a.a. 544-1531) (domain or fragment, human, UniProt O94916 544-1531, looked up)
chain: DPAAAGALNVNVKKEISSPARPCSFEEAMKAMKTTGCNLDKVNIIPNALMTPLIPSSMIKSEDVTPMEVTAEKRSSTIFKTTKSVGSTQQTLENISNIAGNGSFSSPSSSHLPSENEKQQQIQPKAYNPETLTTIQTQDISQPGTFPAVSASSQLPNSDALLQQATQFQTRETQSREILQSDGTVVNLSQLTEASQQQQQSPLQEQAQTLQQQISSNIFPSPNSVSQLQNTIQQLQAGSFTGSTASGSSGSVDLVQQVLEAQQQLSSVLFSAPDGNENVQEQLSADIFQQVSQIQSGVSPGMFSSTEPTVHTRPDNLLPGRAESVHPQSENTLSNQQQQQQQQQQVMESSAAMVMEMQQSICQAAAQIQSELFPSTASANGNLQQSPVYQQTSHMMSALSTNEDMQMQCELFSSPPAVSGNETSTTTTQQVATPGTTMFQTSSSGDGEETGTQAKQIQNSVFQTMVQMQHSGDNQPQVNLFSSTKSMMSVQNSGTQQQGNGLFQQGNEMMSLQSGNFLQQSSHSQAQLFHPQNPIADAQNLSQETQGSLFHSPNPIVHSQTSTTSSEQMQPPMFHSQSTIAVLQGSSVPQDQQSTNIFLSQSPMNNLQTNTVAQEAFFAAPNSISPLQSTSNSEQQAAFQQQAPISHIQTPMLSQEQAQPPQQGLFQPQVALGSLPPNPMPQSQQGTMFQSQHSIVAMQSNSPSQEQQQQQQQQQQQQQQQQQSILFSNQNTMATMASPKQPPPNMIFNPNQNPMANQEQQNQSIFHQQSNMAPMNQEQQPMQFQSQSTVSSLQNPGPTQSESSQTPLFHSSPQIQLVQGSPSSQEQQVTLFLSPASMSALQTSINQQDMQQSPLYSPQNNMPGIQGATSSPQPQATLFHNTAGGTMNQLQNSPGSSQQTSGMFLFGIQNNCSQLLTSGPATLPDQLMAISQPGQPQNEGQPPVTTLLSQQMPENSPLASSINTNQNIEKIDLLVSLQNQGNNLTGSF
notes: NFAT5 (TonEBP), human, 1531 a.a. protein; C-terminal domain (CTD), a.a; 544-1531; The methods for the bacterial construct (pET-28a) say only 'NFAT5 CTD'; also called GFP-NFAT5 CTD; NFAT5 GFP-CTD; not shown: sfGFP, N-terminal, kept
B4: untagged NFAT5 CTD (CTD protein lacking the GFP tag) (domain or fragment, human, UniProt O94916 544-1531, looked up)
chain: DPAAAGALNVNVKKEISSPARPCSFEEAMKAMKTTGCNLDKVNIIPNALMTPLIPSSMIKSEDVTPMEVTAEKRSSTIFKTTKSVGSTQQTLENISNIAGNGSFSSPSSSHLPSENEKQQQIQPKAYNPETLTTIQTQDISQPGTFPAVSASSQLPNSDALLQQATQFQTRETQSREILQSDGTVVNLSQLTEASQQQQQSPLQEQAQTLQQQISSNIFPSPNSVSQLQNTIQQLQAGSFTGSTASGSSGSVDLVQQVLEAQQQLSSVLFSAPDGNENVQEQLSADIFQQVSQIQSGVSPGMFSSTEPTVHTRPDNLLPGRAESVHPQSENTLSNQQQQQQQQQQVMESSAAMVMEMQQSICQAAAQIQSELFPSTASANGNLQQSPVYQQTSHMMSALSTNEDMQMQCELFSSPPAVSGNETSTTTTQQVATPGTTMFQTSSSGDGEETGTQAKQIQNSVFQTMVQMQHSGDNQPQVNLFSSTKSMMSVQNSGTQQQGNGLFQQGNEMMSLQSGNFLQQSSHSQAQLFHPQNPIADAQNLSQETQGSLFHSPNPIVHSQTSTTSSEQMQPPMFHSQSTIAVLQGSSVPQDQQSTNIFLSQSPMNNLQTNTVAQEAFFAAPNSISPLQSTSNSEQQAAFQQQAPISHIQTPMLSQEQAQPPQQGLFQPQVALGSLPPNPMPQSQQGTMFQSQHSIVAMQSNSPSQEQQQQQQQQQQQQQQQQQSILFSNQNTMATMASPKQPPPNMIFNPNQNPMANQEQQNQSIFHQQSNMAPMNQEQQPMQFQSQSTVSSLQNPGPTQSESSQTPLFHSSPQIQLVQGSPSSQEQQVTLFLSPASMSALQTSINQQDMQQSPLYSPQNNMPGIQGATSSPQPQATLFHNTAGGTMNQLQNSPGSSQQTSGMFLFGIQNNCSQLLTSGPATLPDQLMAISQPGQPQNEGQPPVTTLLSQQMPENSPLASSINTNQNIEKIDLLVSLQNQGNNLTGSF
notes: NFAT5 (TonEBP), human, 1531 a.a. protein; C-terminal domain (CTD), a.a; 544-1531; source: E. coli BL21 (DE3) pLysS, purified from inclusion bodies (8 M urea extraction, Superdex 200)

Target: the molecule itself
Experiment: in vitro phase separation (droplet) assay, fluorescence or brightfield microscopy; purified protein in droplet buffer (20 mM Na-HEPES pH 7.4, 1 mM TCEP) with 5% dextran, NaCl (or other salts) added to the indicated osmolarity; 10 min at room temperature; self-association into droplets

Binding result, binds:
B1
B2
B3
B4
